Laboratory results as given in article PMC4027168.

What was measured:
Experiment in all cases: EMSA
Settings in all cases: 50 mM Tris-HCl pH 8.0, 5 mM EDTA, 1 mM DTT, 100 mg/ml BSA (so in the source), 6% glycerol, on ice 20 min, 4% native PAGE in 6.7 mM Tris-HCl pH 8.0, 3.3 mM Na …, scale: fold of wild-type affinity
[1] = tested on: RecG[A693Q] (Escherichia coli K-12 MG1655?)
[2] = tested on: RecG[Y690A] (Escherichia coli K-12 MG1655?)
[3] = tested on: RecG[ΔC1] (Escherichia coli K-12 MG1655?)
[4] = no Mg2+, 5 mM EDTA, RecG 0-100 nM, DNA 0.2 nM

Measured: binding signal

replication fork lacking a lagging strand
1: [1] | [2] | [3]

J12 Holliday junction
1: [1]; [4] | [2]; [4] | [3]; [4]
